What all share (experiment): SPR; Biacore 8K, affinity determination of second-generation constructs; 30-100 RU of ABD035-containing constructs captured on immobilised HSA (CM5); 1-200 nM human sortilin injected 180 s at 30 µl/min, 25°C, PBST; 60 min dissociation; 1:1 Langmuir fit; apparent constants; n=3 technical replicates
For orientation: Surface plasmon resonance follows binding to a sensor surface in real time, without labels.

Test [1] has as its target ABD-A3-(G4S)3-PGRNC6* (His6-ABD035-G4S-A3-(G4S)3-PGRNC6*) (human) (UniProt P28799).
Test [2] addresses ABD-A3-(G4S)3-PGRNC3 (His6-ABD035-G4S-A3-(G4S)3-PGRNC3) (human).
Test [3] has as its target ABD-A3-(G4S)3-NTC3 (His6-ABD035-G4S-A3-(G4S)3-NTC3).
The target in test [4] is A3-ABD (His6-A3-G4S-ABD035).

pKd: −log10 of the molar value.

Sequence of human sortilin (R&D Systems, 3154-ST) (Q99523 78-755): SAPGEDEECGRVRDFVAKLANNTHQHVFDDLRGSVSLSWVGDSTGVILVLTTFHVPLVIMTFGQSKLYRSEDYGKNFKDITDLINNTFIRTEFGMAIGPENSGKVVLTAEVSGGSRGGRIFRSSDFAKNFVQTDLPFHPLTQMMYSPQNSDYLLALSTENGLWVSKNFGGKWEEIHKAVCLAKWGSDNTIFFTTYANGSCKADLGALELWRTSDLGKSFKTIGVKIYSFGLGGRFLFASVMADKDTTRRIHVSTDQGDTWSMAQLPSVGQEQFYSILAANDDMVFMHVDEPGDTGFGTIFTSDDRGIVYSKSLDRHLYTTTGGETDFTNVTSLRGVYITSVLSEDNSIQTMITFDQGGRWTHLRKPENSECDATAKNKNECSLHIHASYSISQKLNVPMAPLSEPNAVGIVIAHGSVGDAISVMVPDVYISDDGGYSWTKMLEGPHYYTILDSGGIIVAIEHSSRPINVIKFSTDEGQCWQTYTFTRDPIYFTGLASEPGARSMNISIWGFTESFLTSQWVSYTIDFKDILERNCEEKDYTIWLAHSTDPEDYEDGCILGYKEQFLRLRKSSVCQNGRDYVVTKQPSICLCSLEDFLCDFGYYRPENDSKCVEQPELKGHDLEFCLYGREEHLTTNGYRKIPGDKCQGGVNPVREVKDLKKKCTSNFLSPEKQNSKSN

By pKd is commonly meant the negative decadic logarithm of the Kd, by convention in mol/L. In the case of “human sortilin (R&D Systems, 3154-ST) (from UniProt Q99523 78-755) (receptor)”, the pKd was 9.50 in test [1], 9.51 in test [2], 9.52 in test [3] and 7.15 in test [4].

Values taken from paper PMC11342335.
